Reference: patent publication US20250325718A1 (Janssen / Centocor, published 2025)

B1: KL2B467 (Fab) (Fab, V domains shown)
VH: QVQLVESGGGVVQPGRSLRLSCAASGFTFSYYGMHWVRQAPGKGLEWVAFISYDGSNKYYADSVKGRFTISRDNSKNTLYLQMNSLRAEDTAVYYCAHLPYSGSYWAFDYWGQGTQVTVSS
VL: QSVLTQPPSVSVAPGQTASITCGGDNIGSKSVHWYQQKPGQAPVLVVYDNSDRPSGIPERFSGSNSGTTATLTISRVEAGDEADYYCQVWDSSSDHPVVFGGGTKVTV
B2: KL2B53 (Fab) (Fab, V domains shown)
VH: EVQLVESGGGVVQPGRSLRLSCVASGFTFSSYDIHWVRQAPGKGLEWVAIISYDGSKKDYTDSVKGRFTISRDNSKNTLYLQMDSLRVEDSAVYSCARESGWSHYYYYGMDVWGQGTMVTVSS
VL: DIVMTQSPSSLSASVGDRVTITCRASQDISNYLAWYQQKPGKVPKFLIYAASTLHSGVPSRFSGSGSGTDFTLTISSLQPEDVATYYCQKYNSAPYTFGQGTRLEIK
B3: KL2B494 (Fab) (Fab, V domains shown)
VH: QVQLVESGGGLVQPGGSLRLSCAASGFTFSHYAMSWVRQAPGKGLEWVSTIGGSGGSTYYADSVKGRFTISRDNSKNTLYLQMNSLRAEDTAVYYCAKPHIVMVTALLYDGMDVWGQGTMVTVSS
VL: SSELTQPPSVSVAPGQTARITCGGNNIGSKSVHWYQQKPGQAPVLVVYDDSDRPSGIPERFSGSNSGNTATLTISRVEAGDEADYYCQVWDSSSDHVVFGGGTKLTVL
B4: KL2B242 (Fab) (Fab, V domains shown)
VH: QVQLQESGPGLVKPSETLSLTCTVSGGSISSYYWSWLRQPAGSGLEWIGRLYVSGFTNYNPSLKSRVTLSLDPSRNQLSLKLSSVTAADTAVYYCAGDSGNYWGWFDPWGQGTLVTVSS
VL: SYELTQPPSVSVSPGETASITCSGDQLGENYACWYQQKPGQSPVLVIYQDSKRPSGIPERFSGSNSGNTATLTISGTQALDEADYYCQAWDNSIVVFGGGTKLTVL
B5: KL2B30 (Fab) (Fab, V domains shown)
VH: QVQLQESGPGLVKPSETLSLTCTVSGGSISSYYWSWIRQPPGKGLEWIGYIYYSGSTNYNPSLKSRVTISVDTSKNQFSLKLSSVTAADTAVYYCAGTTIFGVVTPNFYYGMDVWGQGTTVTVSS
VL: DIQMTQSPSFLSASVGDRVTITCRASQGISSYLAWYQQKPGKAPKFLIYAASTLQSGVPSRFSGSGSGTEFTLTISSLQPEDFATYYCQQLNSYPLTFGGGTKVEIK
B6: KL2B359 (scFv-LH-Fc) (Fc fusion)
scFv: EIVLTQSPATLSLSPGERATLSCRASESVEYFGTSLMHWYQQKPGQPPRLLIYAASNVESGIPARFSGSGSGTDFTLTISSVEPEDFAVYFCQQTRKVPYTFGGGTKVEIKGGSEGKSSGSGSESKSTGGSQVQLQESGPGLVKPSQTLSLTCTVSGNSITSDYAWNWIRQFPGKRLEWIGYISYSGSTTYNPSLKSRVTISRDTSKNQFSLKLSSVTAADTAVYYCATGYYYGSGFWGQGTLVTVSS
notes: scFv (VL-linker-VH) fused to an Fc; also called scFv20; KL2B359_LH; not shown: The hinge and Fc of the scFv-LH-Fc
B7: KL2B413 (scFv-LH-Fc) (Fc fusion)
scFv: EIVLTQSPSFLSASVGDRVTITCRASQGISSYLSWYQQKPGKAPKLLIYATSTLQSGVPSRFSGSGSGTEFTLTISSLQPEDFATYYCQQLNSYPRTFGQGTKVEIKGGSEGKSSGSGSESKSTGGSEVQLVESGGGLVQPGGSLRLSCAASGFTFSSYWMTWVRQAPGKGLEWVANIKQDGSERYYVDSVKGRFTISRDNAKNSLYLQMNSLRAEDTAVYYCARDQNYDILTGHYGMDVWGQGTTVTVSS
notes: scFv (VL-linker-VH) fused to an Fc; also called scFv18; KL2B413_LH; not shown: The hinge and Fc of the scFv-LH-Fc

biological target: T1, Kallikrein related peptidase 2 (hK2), soluble human protein (human, UniProt P20151 19-261); assay: SPR, sentence summing up Table 14
T1 construct: the stated signal peptide (residues 1-18) is left out, the pro-peptide (19-24) is kept; also called KLK2; kallikrein-2
T1 sequence (P20151 19-261): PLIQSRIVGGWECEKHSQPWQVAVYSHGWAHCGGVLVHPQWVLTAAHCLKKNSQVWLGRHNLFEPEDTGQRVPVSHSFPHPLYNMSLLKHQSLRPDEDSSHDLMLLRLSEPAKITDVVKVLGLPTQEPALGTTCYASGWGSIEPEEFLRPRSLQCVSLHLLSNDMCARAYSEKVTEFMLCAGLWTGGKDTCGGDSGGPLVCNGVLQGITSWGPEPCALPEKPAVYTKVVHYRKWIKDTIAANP
Protocol: (§1) Affinity of selected hK2 antibodies for soluble hK2 was measured by surface plasmon resonance (SPR). […] Antibodies were captured on a sensor chip coated with an anti-Fc antibody followed by injection of soluble hK2 at various concentrations and specified association and dissociation times. Post dissociation, the surface was regenerated with an appropriate solution to prepare for the next interaction. Kinetic information (on-rate and off-rate constants) were extracted by fitting sensorgrams to the 1:1 Langmuir model. Binding affinity (KD) are reported as the ratio of rate constants (koff/kₒₙ).

Row | Kd | Binder
1 | < 0.5 nM | B1
2 | < 0.5 nM | B2
3 | < 0.5 nM | B3
4 | < 0.5 nM | B4
5 | < 0.5 nM | B5

biological target: T1, Kallikrein related peptidase 2 (hK2), …; assay: SPR, antibody captured on anti-Fc chip, soluble hK2 injected, 1:1 Langmuir fit
Protocol: as §1

Row | Kd | Binder
6 | 0.7 to 1 nM | B6
7 | 0.078 nM | B1
8 | 34.3 nM | B7
9 | 0.08 nM | B2
10 | 0.053 nM | B3
11 | 0.04 nM | B4
12 | 0.46 nM | B5
